These results are taken from patent US20080301824A1 (CEDARS SINAI MEDICAL CENTER, published 2008).

Assay [1] has as its target T1, hemaglutinin-parkin (HA-parkin), full-length wild type (UniProt O60260 1-465).
T1 construct: also called pCMV-HA-parkin
Nature of the assay: co-IP.

For assay [2], the target named is T2, endogenous parkin of PC12 cells (UniProt Q9JK66 1-465).
T2 construct: also called 50 kDa parkin band
T2 sequence (looked up): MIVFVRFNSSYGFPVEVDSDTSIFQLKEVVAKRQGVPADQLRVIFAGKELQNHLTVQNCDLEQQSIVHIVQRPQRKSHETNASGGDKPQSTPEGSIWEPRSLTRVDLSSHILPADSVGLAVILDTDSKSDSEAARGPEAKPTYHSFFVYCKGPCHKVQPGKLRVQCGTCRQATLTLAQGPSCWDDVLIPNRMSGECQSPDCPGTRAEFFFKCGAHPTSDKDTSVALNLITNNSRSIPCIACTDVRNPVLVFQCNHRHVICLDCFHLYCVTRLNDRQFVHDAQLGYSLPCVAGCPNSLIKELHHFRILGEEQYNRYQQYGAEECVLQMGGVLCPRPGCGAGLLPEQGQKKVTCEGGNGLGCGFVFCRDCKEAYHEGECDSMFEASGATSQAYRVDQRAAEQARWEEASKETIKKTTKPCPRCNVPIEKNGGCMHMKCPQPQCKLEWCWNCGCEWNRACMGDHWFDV
Nature of the assay: co-IP with mouse anti-syt1 from PC12 extracts.
Experimental: PC12 cells were grown in DMEM containing 10% heat-inactivated serum, 5% fetal bovine serum, and penicillin/streptomycin in a 37° C. incubator with 10% CO₂. Media were changed every 3 days. PC12 cells were grown for 48 hours, and proteins were extracted in co-ip buffer (50 mM Tris-HCl, pH 7.5, 0.2% Triton X-100, 150 mM NaCl, and one protease inhibitor pellet (Roche) per 10 ml buffer). Protein extracts were precleared with mouse or rabbit IgG conjugated agarose and incubated with the respective antibodies overnight in the cold room. The primary antibodies were pulled down with anti-mouse or anti-rabbit IgG conjugate agarose for two hours. The final pellets were washed 7 times with co-ip buffer, and the coprecipitates were eluted from the secondary antibody-conjugated agarose with SDS-PAGE buffer. Co-ip products were immunoblotted with either anti-parkin or anti-syt antibodies.

The target in assay [3] is T3, GFP-syt11 (GFP-tagged full-length human synaptotagmin XI) (human, UniProt P42212 1-238 = GFP).
T3 construct: also called GFP-sytXI; GFP-sytxI
Briefly: co-IP with anti-HA agarose from HEK293 cells, anti-GFP blot. The procedure: To determine which domain of parkin binds to synaptotagmin, several truncated parkins tagged with the HA epitope were constructed (FIG. 3A). […] Each truncated construct was coexpressed with GFP-sytxI. After 24 h, protein extracts were immunoprecipitated with rat anti-HA-conjugated agarose followed by western blot detection with anti-GFP antibody.

The target of assay [4] is endogenous parkin of human cerebral cortex (human, UniProt O60260 1-465, limits assumed). Briefly: co-IP from human cerebral cortex extract.
Experimental: To determine whether parkin interacted with endogenous sytXI, protein extract from human cerebral cortex was immunoprecipitated with the anti-parka antibody. For co-immunoprecipitation of human brain extracts, a 1.4 g sample of human cerebral cortex was chopped into small pieces and resuspended in 7 ml of cold lysis buffer (100 mM Tris-HCl, pH 7.5, 150 mM NaCl, 1% Triton X-100, 0.05% SDS, 0.05% deoxycholic acid, and 1 protease inhibitor pellet/10 ml buffer). The cell suspension was homogenized by a glass homogenizer. Protein lysate was aliquoted into 1 ml aliquots and microfuged at top speed in the cold room. Protein extracts were precleared with rabbit IgG conjugated agarose and protein A conjugated agarose for 3 h at 4° C., and the precleared lysate was incubated with rabbit anti-parkA or mouse anti-sytXI antibody overnight in the cold room. The primary antibodies were pulled down with protein A conjugated agarose for 4 h at 4° C. The final pellets were washed five times with co-ip buffer, and the coprecipitates were eluted from the secondary antibody-conjugated agarose with SDS-PAGE buffer.
Assay [5] addresses T4, GAL4 binding domain-NF2 fusion encoded by pGBT9-NF2 (schwannomin tumor suppressor) (UniProt P04386 1-147; P35240 1-595, limits assumed).
T4 construct: also called pGBT9-NF1
Nature of the assay: yeast two-hybrid filter assay. The procedure:
(§1) As previously described (Shibata et al., Hum. Mol. Genet. 9:1303-1313 (2000) and Scoles et al., Nat. Genet. 18:354-359 (1998)), the bait plasmid was cotransformed in yeast strain Y190 and grown on synthetic media without leucine, tryptophan, and histidine, and with 25 mM 3-amino-1,2,4-triazole and 2% glucose. The Y190 strain allows for nutritional selection of the HIS3 gene that allows growth in media lacking histidine and color selection using the LacZ gene encoding β-galactosidase. The β-galactosidase reporter was assayed on stamped nitrocellulose filters by incubating freeze-fractured colonies in Z-buffer (60 mM Na₂HPO₄, 40 mM NaH₂PO₄, 10 mM KCl, 1 mM MgSO₄, pH 7.0, 0.03 mM β-mercaptoethanol, and 2.5 μM X-gal) at 37° C. for 15 min to 8 hr. Positive clones were restreaked on synthetic media without leucine or tryptophan, and retested for β-galactosidase activity, and then pGAD10. “prey” plasmids were isolated.

The target in assay [6] is T5, GAL4 binding domain alone (pGBT9 vector control) (UniProt P04386 1-147).
T5 construct: Empty bait vector control; also called negative control vector pGBT9
Briefly: yeast two-hybrid filter assay. How it is done: as §1

Assay [7] has as its target T6, GAL4 binding domain-Hrs fusion encoded by pGBT9-Hrs (hepatocyte growth factor regulated kinase substrate) (UniProt P04386 1-147; O14964 1-777, limits assumed).
T6 construct: Unrelated bait control
Nature of the assay: yeast two-hybrid filter assay. The procedure:
as §1

Assay [8] concerns the target GAL4 binding domain-parkin(1-465) fusion encoded by pGBT9-parkin(1-465) (UniProt P04386 1-147; O60260 1-465). Nature of the assay: cell-based or functional assay.

B1: full length synapsin-like protein (SLP), GFP fusion (other)
chain: MAQHIQLPGVKALVYVCFTAVLGHSVGWHRGHFGQHGLGRGAVRTRLWIRPGHATFLGQRRAGHQCRFPGSRRRQLLKEPKPSPAAPSSFSSSPPPGPPRIAAAAFSSPGRCGCGCPCHLLTAEPPTQDGGRLSLGPEQNLGPHPQKPGCKRAAPTYESCIKFPTRLRFIRLEVEQHHLVDIVAVTTKTGKTEATPHGMRLMNELLQPGCQGSEEKPLRPCFLIISYA
notes: the construct is inferred; also called the full length protein; not shown: green fluorescent protein (GFP)
On to B1, for which the binding result in assay [1] was “binds”.

B2: endogenous synaptotagmin 1 of PC12 cells (other, UniProt P21707 1-421, looked up)
chain: MVSASHPEALAAPVTTVATLVPHNATEPASPGEGKEDAFSKLKQKFMNELHKIPLPPWALIAIAIVAVLLVVTCCFCVCKKCLFKKKNKKKGKEKGGKNAINMKDVKDLGKTMKDQALKDDDAETGLTDGEEKEEPKEEEKLGKLQYSLDYDFQNNQLLVGIIQAAELPALDMGGTSDPYVKVFLLPDKKKKFETKVHRKTLNPVFNEQFTFKVPYSELGGKTLVMAVYDFDRFSKHDIIGEFKVPMNTVDFGHVTEEWRDLQSAEKEEQEKLGDICFSLRYVPTAGKLTVVILEAKNLKKMDVGGLSDPYVKIHLMQNGKRLKKKKTTIKKNTLNPYYNESFSFEVPFEQIQKVQVVVTVLDYDKIGKNDAIGKVFVGYNSTGAELRHWSDMLANPRRPIAQWHTLQVEEEVDAMLAVKK
notes: also called syt1; endogenous syt1
On to B2, for which the binding result in assay [2] is reported as “binds”.

B3: HA-tagged truncated parkin p294-465 (enzyme, UniProt O60260 294-465, looked up, not shown: small tags and cut ends)
chain: PNSLIKELHHFRILGEEQYNRYQQYGAEECVLQMGGVLCPRPGCGAGLLPEPDQRKVTCEGGNGLGCGFAFCRECKEAYHEGECSAVFEASGTTTQAYRVDERAAEQARWEAASKETIKKTTKPCPRCHVPVEKNGGCMHMKCPQPQCRLEWCWNCGCEWNRVCMGDHWFDV
Turning to B3, the binding result in assay [3] is “no binding”.

B4: HA-tagged truncated parkin p294-385 (enzyme, UniProt O60260 294-385, looked up, not shown: small tags and cut ends)
chain: PNSLIKELHHFRILGEEQYNRYQQYGAEECVLQMGGVLCPRPGCGAGLLPEPDQRKVTCEGGNGLGCGFAFCRECKEAYHEGECSAVFEASG
notes: range 294-385
Turning to B4, the binding result in assay [3] was “no binding”.

B5: HA-tagged truncated parkin p1-203 (enzyme, UniProt O60260 1-203, looked up, not shown: small tags and cut ends)
chain: MIVFVRFNSSHGFPVEVDSDTSIFQLKEVVAKRQGVPADQLRVIFAGKELRNDWTVQNCDLDQQSIVHIVQRPWRKGQEMNATGGDDPRNAAGGCEREPQSLTRVDLSSSVLPGDSVGLAVILHTDSRKDSPPAGSPAGRSIYNSFYVYCKGPCQRVQPGKLRVQCSTCRQATLTLTQGPSCWDDVLIPNRMSGECQSPHCPG
With B5, the binding result in assay [3] is on record as “no binding”.

B6: endogenous synaptotagmin XI of human brain (other)
chain: MAEITNIRPSFDVSPVVAGLIGASVLVVCVSVTVFVWSCCHQQAEKKHKNPPYKFIHMLKGISIYPETLSNKKKIIKVRRDKDGPGREGGRRNLLVDAAEAGLLSRDKDPRGPSSGSCIDQLPIKMDYGEELRSPITSLTPGESKTTSPSSPEEDVMLGSLTFSVDYNFPKKALVVTIQEAHGLPVMDDQTQGSDPYIKMTILPDKRHRVKTRVLRKTLDPVFDETFTFYVIPYSQLQDLVLHFLVLSFDRFSRDDVIGEVMVPLAGVDPSTGKVQLTRDIIKRNIQKCISRGELQVSLSYQPVAQRMTVVVLKARHLPKMDITGLSGNPYVKVNVYYGRKRIAKKKTHVKKCTLNPIFNESFIYDIPTDLLPDISIEFLVIDFDRTTKNEVVGRLILGAHSVTASGAEHWREVCESPRKPVAKWHSLSEY
notes: Endogenous protein; also called endogenous sytXI; sytXI protein band
Turning to B6, the binding result in assay [4] was “binds”.

B7: GAL4 activation domain-MP23a fusion (partial clone of human synapsin-like protein, SLP, in pGAD10) (other, not shown: large carriers)
chain: SFSSSPPPGPPRIAAAAFSSPGRCGCGCPCHLLTAEPPTQDGGRLSLGPEQNLGPHPQKPGCKRAAPTYESCIKFPTRLRFIRLEVEQHHLVDIVAVTTKTGKTEATPHGMRLMNELLQPGCQGSEEKPLRPCFLIISYA
notes: also called SLP (MP23a)
In the case of B7, the binding result in assay [5], in assay [6] and in assay [7] was “no binding” each time. The “β-galactosidase activity in yeast two-hybrid liquid assay, against negative control vector pGBT9” value in assay [8] is about 30 fold.
